Consider 7 molecules from patent US20110287936A1, “GENE SWITCH COMPOSITIONS AND METHODS OF USE” (priority 2010, published 2011).

The subject of data set [1] is RLuc reporter. Kind of data set: Agrobacterium transient luciferase assay of promoters with and without tet operators. Format: in vivo, Nicotiana benthamiana. Particulars: relative light units. As to the method:
The activity of unmodified and designed MMV, dMMV, and EF1A2 promoters were evaluated using the characterized 35SCaMV (SEQ ID NO:861) and 35SCaMV::tetOP (SEQ ID NO:862) promoters as controls. Promoter activity was analyzed via Agrobacterium-mediated transient expression analysis in Nicotiana benthamiana leaves. N. benthamiana leaves were infected with luciferase reporter constructs controlled by either the modified or unmodified promoters. Test constructs were identical except for the promoter sequence (Pro) being tested. Test constructs comprised the following operably linked components: • RB-Pro-RLuc-UBQ3-EF1A-NptII-EF1A3′-LB
Relative light units were quantified for modified and unmodified promoters (FIG. 3), and promoter activity for the modified version determined as the percent of unmodified promoter activity (ProOp/Pro). […] In this assay, 35S:tetOp had about 25% of the activity as 35S promoter, EF1A2:tetOp had about 30% of the activity of EF1A2 promoter, MMV:tetOp had about 60% of the activity of MMV promoter, and dMMV:tetOp had about 50% of the activity of dMMV promoter.

Data set [2] relates to operator. Kind of data set: Biacore SPR operator binding characterization of repressors. The text has this:
Select SU repressors were further characterized for operator and ligand binding, affinity and dissociation kinetics using Biacore™ SPR technology (Biacore, GE Healthcare, USA). The technology is based on surface plasmon resonance (SPR), an optical phenomenon that enables detection of unlabeled interactants in real time. The SPR-based biosensors can be used in determination of active concentration, screening and characterization in terms of both affinity and kinetics.
The kinetics of an interaction, i.e., the rates of complex formation (ka) and dissociation (kd), can be determined from the information in a sensorgram. If binding occurs as sample passes over a prepared sensor surface, the response in the sensorgram increases. If equilibrium is reached, a constant signal is seen. Replacing the sample with buffer causes the bound molecules to dissociate and the response decreases. Biacore evaluation software generates the values of ka and kd by fitting the data to interaction models.
The affinity of an interaction is determined from the level of binding at equilibrium (seen as a constant signal) as a function of sample concentration. Affinity can also be determined from kinetic measurements. For a simple 1:1 interaction, the equilibrium constant KD is the ratio of the kinetic rate constants, kd/ka.
A. Operator Binding Characterization of Repressors

Data set [3] has as its system 35S::tetO-Renilla Luciferase reporter. Kind of data set: Nicotiana benthamiana leaf infiltration assay, repression and derepression. Format: in vivo. Particulars: inducer concentration as low as 0.02 ppm Es.

B1: 35S:tetOp: 35SCaMV promoter with tet operators, SEQ ID NO:862, control (nucleic acid)
DNA: GAAAATCTTCGTCAACATGGTGGAGCACGACACGCTTGTCTACTCCAAAAATATCAAAGATACAGTCTCAGAAGACCAAAGGGCAATTGAGACTTTTCAACAAAGGGTAATATCCGGAAACCTCCTCGGATTCCATTGCCCAGCTATCTGTCACTTTATTGTGAAGATAGTGGAAAAGGAAGGTGGCTCCTACAAATGCCATCATTGCGATAAAGGAAAGGCCATCGTTGAAGATGCCTCTGCCGACAGTGGTCCCAAAGATGGACCCCCACCCACGAGGAGCATCGTGGAAAAAGAAGACGTTCCAACCACGTCTTCAAAGCAAGTGGATTGATGTGATATCTCCACTGACGTAAGGGATGACGCACAATCCCACTAGACTCTATCAGTGATAGAGTGTATATAAGACTCTATCAGTGATAGAGTGAACTCTATCAGTGATAGAGTTGTACTTATTTTTACAACAATTACCAACAACAACAAACAACAAACAACATTACAATTACTATTTACAATTACAGTCGACGGATCAAGTGCAAAGGTCCGCCTTGTTTCTCCTCTGTCTCTTGATCTGACTAATCTTGGTTTATGATTCGTTGAGTAATTTTGGGGAAAGCTTCGTCCACAGTTTTTTTTTCGATGAACAGTGCCGCAGTGGCGCTGATCTTGTATGCTATCCTGCAATCGTGGTGAACTTATTTCTTTTATATCCTTCACTCCCATGAAAAGGCTAGTAATCTTTCTCGATGTAACATCGTCCAGCACTGCTATTACCGTGTGGTCCATCCGACAGTCTGGCTGAACACATCATACGATATTGAGCAAAGATCGATCTATCTTCCCTGTTCTTTAATGAAAGACGTCATTTTCATCAGTATGATCTAAGAATGTTGCAACTTGCAAGGAGGCGTTTCTTTCTTTGAATTTAACTAACTCGTTGAGTGGCCCTGTTTCTCGGACGTAAGGCCTTTGCTGCTCCACACATGTCCATTCGAATTTTACCGTGTTTAGCAAGGGCGAAAAGTTTGCATCTTGATGATTTAGCTTGACTATGCGATTGCTTTCCTGGACCCGTGCAGCTGCGGACGGATCC
modifications: 35SCaMV promoter engineered with tet operators
On to B1, for which the “promoter activity as percent of unmodified promoter activity (ProOp/Pro)” value (“promoter activity as percent … (ProOp/Pro)” for short) in data set [1] was “about 25%”.

B2: dMMV:tetOp: double enhancer MMV promoter with three tet operators, SEQ ID NO:858 (nucleic acid)
DNA: AAACCAATTCGTCAACTTCGTCCACAGACATCAACATCTTATCGTCCTTTGAAGATAAGATAATAATGTTGAAGATAAGAGTGGGAGCCCCCACTAAAACATTGCTTTGTCAAAAGCTAAAAAAGATGATGCCCGACAGCCACTTGTGTGAAGCATGAGAAGCCGGTCCCTCCACTAAGAAAATTAGTGAAGCATCTTCCAGTGGTCCCTCCACTCACAGCTCAATCAGTGAGCAACAGGACGAAGGAAATGACGTAAGCCATGACGTCTAATCCCAACTTCGTCCACAGACATCAACATCTTATCGTCCTTTGAAGATAAGATAATAATGTTGAAGATAAGAGTGGGAGCCACCACTAAAACATTGCTTTGTCAAAAGCTAAAAAAGATGATGCCCGACAGCCACTTGTGTGAAGCATGAGAAGCCGGTCCCTCCACTAAGAAAATTAGTGAAGCATCTTCCAGTGGTCCCTCCACTCACAGCTCAATCAGTGAGCAACAGGACGAAGGAAATGACGTAAGCCATGACGTCTAATCCCACACTCTATCAGTGATAGAGTTTATATAAGACTCTATCAGTGATAGAGTGAACTCTATCAGTGATAGAGTGAGATCAATCGAAATCAAAATCGGAATCGAAATCAAAATCGGAATCGAAATCTCTCATCTAAGAGCTCAAAAAAAAAAAAAACC
modifications: dMMV promoter engineered with tet operators
With B2, the “promoter activity as percent … (ProOp/Pro)” value in data set [1] is on record as “about 50%”.

B3: MMV:tetOp: Mirabilis mosaic virus promoter with three tet operators, SEQ ID NO:857 (nucleic acid)
DNA: TTCGTCCACAGACATCAACATCTTATCGTCCTTTGAAGATAAGATAATAATGTTGAAGATAAGAGTGGGAGCCACCACTAAAACATTGCTTTGTCAAAAGCTAAAAAAGATGATGCCCGACAGCCACTTGTGTGAAGCATGAGAAGCCGGTCCCTCCACTAAGAAAATTAGTGAAGCATCTTCCAGTGGTCCCTCCACTCACAGCTCAATCAGTGAGCAACAGGACGAAGGAAATGACGTAAGCCATGACGTCTAATCCCACACTCTATCAGTGATAGAGTTTATATAAGACTCTATCAGTGATAGAGTGAACTCTATCAGTGATAGAGTGAGATCAATCGAAATCAAAATCGGAATCGAAATCAAAATCGGAATCGAAATCTCTCATCTAAGAGCTCAAAAAAAAAAAAAACC
modifications: MMV promoter engineered with tet operators
For the molecule B3, the “promoter activity as percent … (ProOp/Pro)” value in data set [1] is “about 60%”.

B4: L7-3E03-D1: ethametsulfuron repressor (EsR), SEQ ID NO:411 (protein)
chain: MARLDKSKVINSALELLNEVGIEGLTTRKLAQKLGVEQPTLYWHVKNKRALLDAMAIEMLDRHATHYCPLEGESWQDFLRNNAKSMRCALLSHRDGAKVCLGTGFTEQQYETAENSLAFLCQQGFSLEHAMYAMQAAGIYTLGCVLLDQELQVAKEERETPTTDSMPPLVRQALELKDHQGAEPAFLFGLELIICGLEKQLKCESGS
modifications: Sulfonylurea responsive repressor L7-3E3-D1
In the case of B4, the ka in data set [2] is 55000 M⁻¹ s⁻¹. For the same molecule, in data set [3], the induction of repressor entry was “significant but incomplete induction”.

B5: L7-1F08-A11: ethametsulfuron repressor protein, SEQ ID NO:409 (protein)
chain: MARLDKSKVINSALELLNEVGIEGLTTRKLAQKLGVEQPTLYWHVKNKRALLDAMAIEMLDRHATHYCPLEGESWQDFLRNNAKSMRCALLSHRDGAKVCLGTGFTEQQYETAENSLAFLCQQGFSLENALYAMQAVGIYTLGCVLLDQELQVAKEERETPTTDSMPPLVRQALELKDHQGAEPAFLFGLELIICGLEKQLKCESGS
modifications: Sulfonylurea responsive repressor L7-1F8-A11
For the molecule B5, the ka in data set [2] was 71000 M⁻¹ s⁻¹.

B6: L7-1C03-A5: ethametsulfuron repressor (EsR), SEQ ID NO:408 (protein)
chain: MARLDKSKVINSALELLNEVGIEGLTTRKLAQKLGVEQPTLYWHVKNKRALLDAMAIEMLDRHATHVCPLEGESWQDFLRNNAKIMRCALLSHRDGAKVCLGTGFTEQQYETAENSLAFLCQQGFSLEHALYAMQAAGIFTLGCVLLDQELQVAKEERETPTTDSMPPLVRQALELNDHQGAEPAFLFGLELIICGLEKQLKCESGS
modifications: Sulfonylurea responsive repressor L7-1C3-A5
Consider B6, for which, in data set [2], the ka amounted to 47000 M⁻¹ s⁻¹.

B7: L7-1G06-B2: ethametsulfuron repressor (EsR), SEQ ID NO:410 (protein)
chain: MARLDKSKVINSALELLNEVGIEGLTTRKLAQKLGVEQPTLYWHVKNKRALLDAMAIEMLDRHATHYCPLEGESWQDFLRNNAKSMRCALLSHRDGAKVCLGTGFTEQQYETAENSMAFLCQQGFSLENALYAMQAVGIYTLGCVLLDQELQVAKEERETPTTDSMPPLVRQALELKDHQGAEPAFLFGLELIICGLEKQLKCESGS
modifications: Sulfonylurea responsive repressor L7-1G6-B2
Consider B7, for which, in data set [2], the ka was determined as 46000 M⁻¹ s⁻¹.
